Test results as given in article PMC8282039.

Target: CDY14HL-Fc4 (human) (UniProt Q9BYF1)
Assay: SPR

In the case of “SARS-CoV-2 receptor binding domain (RBD), Wuhan (from UniProt P0DTC2 330-530) (domain or fragment)”, the Kd is reported as 31 pM.
